The supplement of paper PMC6757056
± gives the standard deviation of the averaged measurements.

B1: library; a variant is named by its letters at N, in order (parent)
chain: GCUGUCACCGGAAUACCAGCAUCGUCUUGAUGCCCUUGGAAGUCCGGUCUGAUGAGUCCNNNNNGGACGAAACAGC

Key:
theophylline [1] = variants of: B1; experiment: FACS-Seq fitted mean relative fluorescence mCherry/BFP without ligand (log10 relative fluorescence); higher = higher reporter protein expression; conditions: HEK293T, ligand present: no
Procedure: (§1)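 Hammerhead (sTRSV) ribozyme switch libraries with a ligand aptamer grafted on stem I and a randomized N4-6 loop II, cloned into the 3' UTR of mCherry and transiently transfected into HEK293T cells; RNA-Seq 72 h post transfection with ligand added 1 h before transfection; RNA read count / plasmid DNA read count normalized to the non-cleaving sTRSVctl (x100), log10; sequences with >100 DNA reads. FACS-Seq: lentiviral library sorted into 6 bins after 48 h ligand, log-normal fit mean of mCherry/BFP scaled to controls. Printed sequences are partial switch sequences.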

theophylline [2] = variants of: B1; experiment: normalized RNA/DNA level with ligand (relative to sTRSVctl = 100) (log10 (% of sTRSVctl)); higher = less ribozyme self-cleavage, higher mRNA level; conditions: ligand concentration (+) RNA-Seq: 5 mM, HEK293T, reporter: mCherry (pCS4076), ligand present: yes
Procedure: as §1

theophylline [3] = variants of: B1; experiment: normalized RNA/DNA level without ligand (relative to sTRSVctl = 100) (log10 (% of sTRSVctl)); higher = less ribozyme self-cleavage, higher mRNA level; conditions: HEK293T, reporter: mCherry (pCS4076), ligand present: no
Procedure: as §1

theophylline [4] = variants of: B1; experiment: FACS-Seq fitted mean relative fluorescence mCherry/BFP with ligand (log10 relative fluorescence); ligand concentration (+) FACS-Seq: 1 mM; higher = higher reporter protein expression; conditions: HEK293T, ligand present: yes
Procedure: as §1

Variant | FACS-Seq fitted mean (log10) (theophylline [1]) | normalized RNA/DNA level with ligand (log10) (theophylline [2]) | normalized RNA/DNA level without ligand (log10) (theophylline [3]) | FACS-Seq fitted mean (log10) (theophylline [4])
GCUGUCACCGGAAUACCAGCAUCGUCUUGAUGCCCUUGGAAGUCCGGUCUGAUGAGUCCGCGAUGGACGAAACAGC [GCGAU] | 0.428 ± 0.072 | 1.96 ± 0.025 | 1.7 ± 0.18 | 0.549 ± 0.1
GCUGUCACCGGAAUACCAGCAUCGUCUUGAUGCCCUUGGAAGUCCGGUCUGAUGAGUCCCCGAUGGACGAAACAGC [CCGAU] | 0.974 ± 0.065 | 2 ± 0.047 | 1.64 ± 0.11 | 1.06 ± 0.11
GCUGUCACCGGAAUACCAGCAUCGUCUUGAUGCCCUUGGAAGUCCGGUCUGAUGAGUCCCCGACGGACGAAACAGC [CCGAC] | 0.958 ± 0.04 | 1.94 ± 0.04 | 1.91 ± 0.13 | 1.06 ± 0.043
GCUGUCACCGGAAUACCAGCAUCGUCUUGAUGCCCUUGGAAGUCCGGUCUGAUGAGUCCCCGAAGGACGAAACAGC [CCGAA] | -0.229 ± 0.1 | 1.93 ± 0.06 | 1.4 ± 0.089 | 0.178 ± 0.11
GCUGUCACCGGAAUACCAGCAUCGUCUUGAUGCCCUUGGAAGUCCGGUCUGAUGAGUCCCCGCAGGACGAAACAGC [CCGCA] | 0.678 ± 0.047 | 2.08 ± 0.025 | 1.83 ± 0.043 | 0.764 ± 0.0084
GCUGUCACCGGAAUACCAGCAUCGUCUUGAUGCCCUUGGAAGUCCGGUCUGAUGAGUCCUCCUUGGACGAAACAGC [UCCUU] | 0.983 ± 0.13 | 2.011 ± 0.0076 | 1.94 ± 0.053 | 1.01 ± 0.082
GCUGUCACCGGAAUACCAGCAUCGUCUUGAUGCCCUUGGAAGUCCGGUCUGAUGAGUCCCCCUUGGACGAAACAGC [CCCUU] | 1.13 ± 0.16 | 1.99 ± 0.035 | 1.89 ± 0.049 | 1.07 ± 0.036
GCUGUCACCGGAAUACCAGCAUCGUCUUGAUGCCCUUGGAAGUCCGGUCUGAUGAGUCCUCGAAGGACGAAACAGC [UCGAA] | 0.342 ± 0.019 | 1.97 ± 0.055 | 1.48 ± 0.066 | 0.951 ± 0.086
GCUGUCACCGGAAUACCAGCAUCGUCUUGAUGCCCUUGGAAGUCCGGUCUGAUGAGUCCUCGAUGGACGAAACAGC [UCGAU] | 0.605 ± 0.16 | 2.087 ± 0.0041 | 1.78 ± 0.12 | 0.815 ± 0.057
GCUGUCACCGGAAUACCAGCAUCGUCUUGAUGCCCUUGGAAGUCCGGUCUGAUGAGUCCUCGACGGACGAAACAGC [UCGAC] | 0.96 ± 0.048 | 1.9 ± 0.12 | 1.78 ± 0.059 | 0.965 ± 0.022
GCUGUCACCGGAAUACCAGCAUCGUCUUGAUGCCCUUGGAAGUCCGGUCUGAUGAGUCCACCUUGGACGAAACAGC [ACCUU] | 1.31 ± 0.14 | 2.04 ± 0.038 | 1.95 ± 0.047 | 1.27 ± 0.14
GCUGUCACCGGAAUACCAGCAUCGUCUUGAUGCCCUUGGAAGUCCGGUCUGAUGAGUCCACGCCGGACGAAACAGC [ACGCC] | 1.08 ± 0.17 | 1.95 ± 0.074 | 1.94 ± 0.19 | 0.984 ± 0.017
GCUGUCACCGGAAUACCAGCAUCGUCUUGAUGCCCUUGGAAGUCCGGUCUGAUGAGUCCACGCAGGACGAAACAGC [ACGCA] | 0.6839 ± 0.0046 | 1.99 ± 0.053 | 1.77 ± 0.03 | 0.824 ± 0.049
GCUGUCACCGGAAUACCAGCAUCGUCUUGAUGCCCUUGGAAGUCCGGUCUGAUGAGUCCUCGCAGGACGAAACAGC [UCGCA] | 0.556 ± 0.006 | 1.96 ± 0.055 | 1.57 ± 0.12 | 0.806 ± 0.091
GCUGUCACCGGAAUACCAGCAUCGUCUUGAUGCCCUUGGAAGUCCGGUCUGAUGAGUCCACGAAGGACGAAACAGC [ACGAA] | 0.287 ± 0.046 | 1.97 ± 0.098 | 1.51 ± 0.045 | 0.661 ± 0.025
GCUGUCACCGGAAUACCAGCAUCGUCUUGAUGCCCUUGGAAGUCCGGUCUGAUGAGUCCACGAGGGACGAAACAGC [ACGAG] | 0.428 ± 0.049 | 2.05 ± 0.026 | 1.85 ± 0.073 | 0.448 ± 0.017
GCUGUCACCGGAAUACCAGCAUCGUCUUGAUGCCCUUGGAAGUCCGGUCUGAUGAGUCCACGAUGGACGAAACAGC [ACGAU] | 0.425 ± 0.067 | 2.06 ± 0.059 | 1.69 ± 0.15 | 0.552 ± 0.049
GCUGUCACCGGAAUACCAGCAUCGUCUUGAUGCCCUUGGAAGUCCGGUCUGAUGAGUCCACGACGGACGAAACAGC [ACGAC] | 1.26 ± 0.14 | 1.981 ± 0.0072 | 1.834 ± 0.018 | 1.19 ± 0.2
